Assay [1] has as its target T1, mouse DLL4, full length, overexpressed on CHO or HEK293 cells (mouse, UniProt Q9JI71 27-686).
T1 construct: whole, on cells; also called CHO-mDLL4; CHO-mDII4
The assay can be described thus: periplasmic extract; FMAT, Notch1/Fc on CHO-mDLL4. From the text:
(§1) All calculations are based on the FL1_total signal which comprises the average of the fluorescence per well times the number of counts per well.

In assay [2] the target is T2, human DLL4, full length, overexpressed on CHO or HEK293 cells (human, UniProt Q9NR61 27-685).
T2 construct: also called CHO-hDLL4; CHO-hDII4
The assay can be described thus: periplasmic extract; FMAT, Notch1/Fc on CHO-hDLL4.
From the text: as §1

Assay [3] has as its target T3, recombinant mouse DLL4 (mouse, UniProt Q9JI71 27-532).
T3 construct: extracellular domain; also called rmDLL4; mDLL4; not shown: C-terminal His tag
The assay can be described thus: ProteOn off-rate screen, periplasmic extract, mDLL4 on chip. The protocol:
(§2) In a first cycle, amino acid substitutions are introduced randomly in both framework (FW) and complementary determining regions (CDR) using the error-prone PCR method. […] After a polish step, PCR products are inserted via unique restriction sites into a vector designed to facilitate phage display of the VHH library. […] No selections on murine DLL4 are included as (conservation of) cross-reactivity is assessed at the screening level. Individual mutants are produced as recombinant protein using an expression vector derived from pUC119, which contains the LacZ promoter, a resistance gene for ampicillin, a multiple cloning site and an ompA leader sequence (pAX50). E. coli TG1 cells are transformed with the expression vector library and plated on agar plates (LB+Amp+2% glucose). Single colonies are picked from the agar plates and grown in 1 mL 96-deep-well plates. VHH expression is induced by adding IPTG (1 mM). Periplasmic extracts (in a volume of ˜80 uL) are prepared according to standard methods and screened for binding to recombinant human and mouse DII4 in a ProteOn (BioRad, Hercules, Calif., USA) off-rate assay. […] Periplasmic extract of affinity matured clones is diluted 1/10 and injected across the “analyte channels” A1-A6. An average off-rate is calculated of the wild type clones present in the plate and served as a reference to calculate off-rate improvements.

Assay [4] concerns the target T4, recombinant human DLL4 (human, UniProt Q9NR61 25-522).
T4 construct: R&D Systems C-terminally His-tagged extracellular domain; also called rhDLL4; hDLL4; not shown: C-terminal His tag
The assay can be described thus: ProteOn off-rate screen, periplasmic extract, hDLL4 on chip. The protocol: as §2

By % inhibition is commonly meant the relative decrease from the control value, in per cent.

T3 sequence (Q9JI71 27-532): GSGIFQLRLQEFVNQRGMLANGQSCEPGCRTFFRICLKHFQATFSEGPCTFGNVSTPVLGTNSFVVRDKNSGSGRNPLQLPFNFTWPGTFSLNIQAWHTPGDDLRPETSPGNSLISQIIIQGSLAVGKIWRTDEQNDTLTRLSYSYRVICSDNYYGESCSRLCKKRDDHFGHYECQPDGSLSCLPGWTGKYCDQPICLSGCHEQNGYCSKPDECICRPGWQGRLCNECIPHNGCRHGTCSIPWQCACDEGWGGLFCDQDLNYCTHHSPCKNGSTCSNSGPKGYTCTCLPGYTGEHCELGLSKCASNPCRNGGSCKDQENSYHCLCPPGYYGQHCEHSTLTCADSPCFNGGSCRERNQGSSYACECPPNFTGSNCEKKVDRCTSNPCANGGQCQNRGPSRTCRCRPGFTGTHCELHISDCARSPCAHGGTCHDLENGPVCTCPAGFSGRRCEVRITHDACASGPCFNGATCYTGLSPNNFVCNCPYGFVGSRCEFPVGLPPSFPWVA
T1 sequence (Q9JI71 27-686): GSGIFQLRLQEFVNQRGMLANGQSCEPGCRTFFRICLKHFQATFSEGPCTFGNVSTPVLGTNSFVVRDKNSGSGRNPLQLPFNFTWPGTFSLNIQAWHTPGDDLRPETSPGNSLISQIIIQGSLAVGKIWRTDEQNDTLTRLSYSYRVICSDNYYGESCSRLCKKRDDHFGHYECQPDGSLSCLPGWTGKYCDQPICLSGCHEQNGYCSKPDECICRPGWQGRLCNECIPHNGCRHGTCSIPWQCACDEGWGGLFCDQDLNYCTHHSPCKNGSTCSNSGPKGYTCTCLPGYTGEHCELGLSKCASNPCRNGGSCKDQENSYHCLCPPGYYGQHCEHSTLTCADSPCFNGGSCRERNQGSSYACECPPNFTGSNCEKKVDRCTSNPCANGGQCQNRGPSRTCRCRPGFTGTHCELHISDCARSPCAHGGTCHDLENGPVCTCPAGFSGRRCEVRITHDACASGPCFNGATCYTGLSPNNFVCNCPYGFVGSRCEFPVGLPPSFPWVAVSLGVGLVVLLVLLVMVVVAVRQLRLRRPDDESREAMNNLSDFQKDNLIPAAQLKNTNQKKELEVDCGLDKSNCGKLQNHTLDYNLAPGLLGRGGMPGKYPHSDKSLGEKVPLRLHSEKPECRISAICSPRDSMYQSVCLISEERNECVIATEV

B1: DLLBII80E08 (VHH)
VHH: EVQLVESGGGLVQAGGSLTLSCAASGGTFTTYAMGWFRQAPGKEREFVAAVSRFGVSWDYADSVKGRFTISRDNTANTLKLRMNSLKADDTAVYYCAAGGRSFLPFVPAYWGQGTQVTVSS
notes: also called DLLBII80E8; not shown: C-terminal c-myc and His6 tags
Consider B1, for which the “% inhibition” value in assay [1] amounted to 82%; in assay [2] it was 71%.

B2: DLLBII112A04 (VHH)
VHH: EVQLVESGGGLVQAGGSLRLSCAAFGRTPYGMGWFRQAPGKEREFVAAITSDGSTNYADSVKGRFTISRDNAKNAVSLQMNSLKPEDTAVYYCTAPYYSDFEGTTTEYDYWGQGTQVTVSS
notes: also called DLLBII112A4; not shown: C-terminal c-myc and His6 tags
For the molecule B2, the entries for the “% inhibition” value in assay [1] and in assay [2] were 90% and 75%, respectively.

B3: DLLBII112E07 (VHH)
VHH: EVQLVESGGGLVQAGGSLRLSCAASGRTVRSYATGWFRQAPGKEREFVAALRWSIGSIASVYYDDSVKGRFTISGDNAENTVYLQMNALKPEDTAIYYCASTTRGRYSALSASAYDYWGQGTQVTVSS
notes: also called DLLBII112E7; not shown: C-terminal c-myc and His6 tags
For the molecule B3, the “% inhibition” value in assay [1] was determined as 85%; in assay [2], 80%.

B4: DLLBII102G04 (VHH)
VHH: EVQLMESGGGLVQPGGSLRLSCAASGFTFSSYAMSWVRQAPGKGLEWVSRITSGGRTTYRDSVKGRFTISRDNSKNTLYLQMNSLKPEDTALYYCAKARGDIDVYTLSDSRGQGTQVTVSS
notes: also called DLLBII102G4; not shown: C-terminal c-myc and His6 tags
On to B4, for which the “% inhibition” value in assay [1] is 82%; in assay [2], 86%.

B5: DLLBII102F08 (VHH)
VHH: EVQLVESGGGLVQTGDSLRLSCAASGSTFSNYRMGWFRQGPGKEREFVAAIGRNGQNTYYTDSVKGRFTVTRDNAKNMVYLQMNSLKPEDSAVYTCAASLRGWDTTRIDYEYWGQGTQVTVSS
notes: also called DLLBII102F8; not shown: C-terminal c-myc and His6 tags
For the molecule B5, the “% inhibition” value in assay [1] worked out at 75%; in assay [2] it was 85%.

B6: DLLBII58A11 (VHH)
VHH: EVQLVESGGGLVQAGGSLRLSCTTSERTVSRYSMGWFRQAPGKEREAVATISWSGDSTYYADSVKGRFTISRDNTKNTLYLQIDSLKPEDTAVYYCVAKPNLKYGSYWPPRGYDYWGQGTQVTVSS
notes: not shown: C-terminal c-myc and His6 tags
For B6, the entries for the “% inhibition” value in assay [1] and in assay [2] were 73% and 95%, respectively.

B7: DLLBII101F01 (VHH)
VHH: EVQLVESGGGLVQAGGSLRLSCAASGRTFSNYAMGWFRQAPGKEREFVAAISWSGGDTYYADSVKGRFTISRDNAKNTVCLQMNSLKPEDTAVYYCAASFQSGAAPGANFYDYWGQGTQVTVSS
notes: also called DLLBII101F1; not shown: C-terminal c-myc and His6 tags
With B7, the “% inhibition” value in assay [1] was 78%; in assay [2] it was 85%.

B8: DLLBII104C04 (VHH)
VHH: EVQLVESGGGLVQAGGSLRLSCAAAGSTFSSYVMGWYRQAPGKQRELVAHISTRGITYYADSVKGRFTISRDNAKNTMYLQMNSLKPEDTAVYYCNTRRNFLSNYWGQGTQVTVSS
notes: also called DLLBII104C4; not shown: C-terminal c-myc and His6 tags
In the case of B8, the entries for the “% inhibition” value in assay [1] and in assay [2] were 83% and 87%, respectively.

B9: DLLBII104A03 (VHH)
VHH: EVQLVESGGGLVQAGGSLRLSCAASGDIPRIAAMGWYRQAPGKQRELVATVSNAATTRYADSAKGRFTISRDNAKTVSLQMDNLKPEDTGVYYCYSLATTVTPSWVNYWGQGTQVTVSS
notes: also called DLLBII104A3; not shown: C-terminal c-myc and His6 tags
Take B9: the “% inhibition” value was 83% in assay [1] and 86% in assay [2].

B10: DLLBII107C03 (VHH)
VHH: EVQLVESGGGLVQPGGSLRLSCEVSGSIGSVSDMRWYRQAPGLQYELVARITSGSITDYSDSVKGRFTISRDNAKNTVYLQMNSLKPEDTAVYYCNADVQHSAWLKPLTYWGQGTQVTVSS
notes: also called DLLBII107C3; not shown: C-terminal c-myc and His6 tags
On to B10, for which the “% inhibition” value in assay [1] worked out at 80%; in assay [2], 75%.

B11: DLLBII101H09 (VHH)
VHH: EVQLVESGGGLVQPGGSLRLSCAASGFTLGYYTIVWFRQAPGKERKGVSCISSRDGSRYYADSVKGRFTISRDNAKNTVYLRMNSLKPEDTAVYYCAAGPDCSSYDYWGQGTQVTVSS
notes: also called DLLBII101H9; DLL1BII101H09; not shown: C-terminal c-myc and His6 tags
On to B11, for which the “% inhibition” value amounted to 75% in assay [1] and 87% in assay [2].

B12: DLLBII61F07 (VHH)
VHH: EVQLVESGGGLVQAGGSLRLSCAASGRTFSRYAMGWFRQAPGKEREFVAAINWSGGSTYYADSVKGRFTISRDNAKNTVYLQMNSLKPEDTAVYDCAASNYYSVYDDRPVMDYWGQGTQVTVSS
notes: also called DLLBII61F7; not shown: C-terminal c-myc and His6 tags
As for B12, the entries for the “% inhibition” value in assay [1] and in assay [2] were 77% and 79%, respectively.

B13: DLLBII83G01 (VHH)
VHH: EVQLVESGGGLVQAGGSLRLSCAASGRTFSNYIMGWFRQAPGKEREFVAGISRYADYTGYADSVKGRFTISRDNVKNTVYLRMNSLKPDDTAVYYCAANEGYCSGYGCYEDSGQYDYWGQGTQVTVSS
notes: also called DLLBII83G1; not shown: C-terminal c-myc and His6 tags
For B13, the “% inhibition” value in assay [1] was found to be 93%; in assay [2] it was 87%.

B14: DLLBII61F05 (VHH)
VHH: EVQLVESGGGLVQPGGSLRLSCTASGFTFSSYAMSWVRQAPGKGLEWVSFINKDGSDTGYADSVKGRFTISRDNAKNTMYLQMNSLKPEDTAVYFCETRTSRSPRPRGQGTQVTVSS
notes: also called DLLBII61F5; not shown: C-terminal c-myc and His6 tags
For the molecule B14, the “% inhibition” value in assay [1] was 76%; in assay [2] it was 74%.

B15: DLLBII95F02 (VHH)
VHH: EVQLVESGGGSVQAGGSLRLSCAASGRTFSSYAMGWFRQAPGKEREFVAAINWSGGYTYYADSVRGRFTISRDNAKNTVYLQMNSLKPEDTAVYYCAAPAPGSSGYEYDYWGQGTQVTVSS
notes: also called DLLBII95F2; not shown: C-terminal c-myc and His6 tags
Regarding B15, the “% inhibition” value in assay [1] is 71%; in assay [2] it was 81%.

B16: DLLBII112A03 (VHH)
VHH: EVQLVESGGGLVQPGGSLRLSCAASGIRFSINGMGWYRQAPGKQREAVATITRGGIRDYTDSVKGRFTISRDIARNTVYLQMNNLKPEDSAVYYCNIDIYWGRGTQVTVSS
notes: also called DLLBII112A3; not shown: C-terminal c-myc and His6 tags
As for B16, the “% inhibition” value in assay [1] was determined as 97%; in assay [2], 72%.

B17: DLLBII129A03 (VHH)
VHH: EVQLVESGGGLVQAGGSLRLSCAASGRTFSSYAMAWFRQAPGKEREYVAAIRWSGGTAYYADSVQGRFTISRDNAKNTVYLQMNSLRPEDTAVYYCANRAPDTRLRPYLYDYWGQGTQVTVSS
notes: not shown: C-terminal c-myc tag and (His)6 tag
Consider B17, for which the “fold (off-rate improvement over DLLBII101G08)” value (“fold” for short) in assay [3] came to 18 fold; in assay [4], 19 fold.

B18: DLLBII129E03 (VHH)
VHH: EVQLVESGGGLVQAGGSLRLSCAASGRTFSSYAMAWFRQAPGKDREYVAAIRWSGGTAYYADSVQGRFTISRDNAKNTVYLQMNSLKPEDTAVYYCANRAPDTRLAPYLYDYWGQGTQVTVSS
Take B18: the “fold” value in assay [3] is 18 fold; in assay [4], 20 fold.

B19: DLLBII129D01 (VHH)
VHH: EVQLVESGGGLVQAGGSLRLSCAASGRTFSSYAMAWFRQAPGKEREYVAAIRWSGGTAYYADSVQSRFTITRDNAKNTVYLQMNSLKPEDTAVYYCANRAPDTRLEPYLYDHWGQGTQVTVSS
For B19, the “fold” value in assay [3] and in assay [4] was 26 fold throughout.

B20: DLLBII129B02 (VHH)
VHH: EVQLVESGGGLVQAGGSLSLSCAASGRTFSSYAMAWYRQAPGKEREYVAAIRWSGGTAYYADSVQGRFTISRDNAKNTVYLQMNSLKPEDTAVYYCANRAPDTRLEPYEYDHWGQGTQVTVSS
For the molecule B20, the “fold” value in assay [3] is 26 fold; in assay [4], 30 fold.

B21: DLLBII129E07 (VHH)
VHH: EVQLVESGGGLVQAGGSLRLSCSASGRTFSSYAMAWYRQAPGKEREYVAAIRWSGGTAYYPDSVQGRFTISRDNAKNTVYLQMNSLKPEDTAVYYCANRAPDTRLAPYEYDHWGQGTQVTVSS
Take B21: the “fold” value was found to be 24 fold in assay [3] and 21 fold in assay [4].

B22: DLLBII47D01 (VHH)
VHH: EVQLVESGGGLVQPGGSLRLSCAASGFTFDDYAIGWFRQAPGKEREGVSCISSSGSTYYADSVKGRFTISRDNAKNTVYLQMNSLKPEDTAVYYCAIAGASSWCFPPGYWGQGTQVTVSS
notes: also called DLLBII47D1; not shown: C-terminal c-myc and His6 tags
For B22, the “% inhibition” value in assay [2] is 87%.

B23: DLLBII104B05 (VHH)
VHH: EVQLVESGGGSVQAGGSLRLSCAASGSISRIDVMAWYRQAPGKERELVASISSGGSTNYADSVKGRFTISREYFKNMMYLQMNSLKFEDTAVYYCNADSRRGGVGNFFRSWGQGTQVTVSS
notes: also called DLLBII104B5; DLLBII1040B05; not shown: C-terminal c-myc and His6 tags
For the molecule B23, the “% inhibition” value stood at 78% in assay [1] and 86% in assay [2].

B24: DLLBII101H05 (VHH)
VHH: EVQLVESGGGSAQAGGSLRLSCAASGRTSSTYAMGWFRQAPGKEHEFVSAIGRGTGATSYGDSVKGRFTISRDNAKNTVYLQMNSLQLEDTGDYYCVAGRGFYHDYSSYEYRGQGTQVTVSS
notes: also called DLLBII101H5; not shown: C-terminal c-myc and His6 tags
For the molecule B24, the “% inhibition” value in assay [1] was 83%.

Source of the values: patent US20130078247A1 (Boehringer Ingelheim, published 2013).
